Reference: US20100172907A1 (Hoffmann-La Roche, published 2010)
Changes are numbered by the printed parent chain. Groups on a side chain read outwards from the residue. No end group written: not given here. NSMP = not defined here

T1: BSA-conjugated Aβ heptapeptide LVFFAEC (reading uncertain; also: BSA conjugate)
T1 construct: also called Peptide 17-22
T1 peptide: LVFFAEC([NSMP-BSA])

T2: BSA-conjugated Aβ heptapeptide VFFAEDC (C-terminal Cys coupled to NSMP-activated BSA)
T2 construct: also called Peptide 18-23
T2 peptide: VFFAEDC

T3: BSA-conjugated Aβ heptapeptide FFAEDVC (C-terminal Cys coupled to NSMP-activated BSA)
T3 construct: also called Peptide 19-24
T3 peptide: FFAEDVC

T4: BSA-conjugated Aβ heptapeptide AEFRHDC (C-terminal Cys coupled to NSMP-activated BSA)
T4 construct: also called Peptide 2-7
T4 peptide: AEFRHDC

B1: MS-Roche #7.9 Fab (Fab, V domains shown)
VH: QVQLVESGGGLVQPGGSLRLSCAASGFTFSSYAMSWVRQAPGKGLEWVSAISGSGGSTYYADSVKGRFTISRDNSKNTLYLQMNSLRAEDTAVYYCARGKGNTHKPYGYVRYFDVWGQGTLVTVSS
VL: DIVLTQSPATLSLSPGERATLSCRASQSVSSSYLAWYQQKPGQAPRLLIYGASSRATGVPARFSGSGSGTDFTLTISSLEPEDFATYYCLQIYNMPITFGQGTKVEIKR
notes: VL entry is that of the H-CDR2 derivative 7.9H7
B2: MS-R #7.12 IgG1 (antibody, V domains shown)
VH: QVELVESGGGLVQPGGSLRLSCAASGFTFSSYGMSWVRQAPGKGLEWVSNISGSGSSTYYADSVKGRFTISRDNSKNTLYLQMNSLRAEDTAVYYCARGKGNTHKPYGYVRYFDVWGQGTLVTVSS
VL: B1 VL with S28Y, S32P, Y50S, A52S, S54N, T86V, I92L, M95I, I97N
notes: full-length human IgG1
B3: MS-R #7.11 IgG1 (antibody, V domains shown)
VH: B2 VH with G33A, N50A, S56G
VL: B1 VL with L90Q, I92V, N94S, M95P, I97H
notes: full-length human IgG1
B4: MS-Roche #8.2.H1 Fab (Fab, V domains shown)
VH: QVQLVESGGGLVQPGGSLRLSCAASGFTFSSYAMSWVRQAPGKGLEWVSAISITGRRKYYADSVKGRFTISRDNSKNTLYLQMNSLRAEDTAVYYCARLLSRGYNGYYHKFDVWGQGTLVTVSS
VL: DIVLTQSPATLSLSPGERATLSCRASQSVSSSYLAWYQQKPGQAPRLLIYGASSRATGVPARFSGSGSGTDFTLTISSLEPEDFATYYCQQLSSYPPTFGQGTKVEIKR
B5: MSR 3.4.H7 IgG1 (antibody, V domains shown)
VH: QVQLVESGGGLVQPGGSLRLSCAASGFTFSSYAMSWVRQAPGKGLEWVSVISETGKNIYYADSVKGRFTISRDNSKNTLYLQMNSLRAEDTAVYYCARLTHYARYYRYFDVWGQGTLVTVSS
VL: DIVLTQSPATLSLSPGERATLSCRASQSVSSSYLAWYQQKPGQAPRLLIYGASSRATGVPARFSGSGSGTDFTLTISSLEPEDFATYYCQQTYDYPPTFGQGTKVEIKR
notes: full-length human IgG1
B6: MS-R IgG1 8.2.H2 (antibody, V domains shown)
VH: B4 VH with Q3E, I53R, R56S, R57K, K58T
VL: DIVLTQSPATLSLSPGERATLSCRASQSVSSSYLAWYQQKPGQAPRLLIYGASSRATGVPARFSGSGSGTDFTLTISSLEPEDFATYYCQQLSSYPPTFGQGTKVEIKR
notes: full-length human IgG1
B7: MS-R #7.9.H7 IgG1 (antibody, V domains shown)
VH: B2 VH with G33A, N50A, S52N, G53A, S56T, S57R
VL: B1 VL
notes: full-length human IgG1; also called MAB 31; MS-Roche IgG #7.9.H7
B8: MS-R IgG1 3.6.H8 × 3.6.L2 (antibody, V domains shown)
VH: ELVESGGGLVQPGGSLRLSCAASGFTFSSYAMSWVRQAPGKGLEWVSAISEYSKFKYYADSVKGRFTISRDNSKNTLYLQMNSLRAEDTAVYYCARLTHYARYYRYFDVWGQGTLVTVSS
VL: B1 VL with S28F, V29L, S31R, S32Y, T86V, L90Q, I92T, M95Y, I97P
notes: full-length human IgG1; VH entry starts at QLVESGG
B9: MS-R IgG1 7.12.L1 (antibody, V domains shown)
VH: B2 VH with E3Q
VL: DIVLTQSPATLSLSPGERATLSCRASQYVFRRYLAWYQQKPGQAPRLLISGSSNRATGVPARFSGSGSGTDFTLTISSLEPEDFAVYYCLQLYNIPNTFGQGTKVEIKR
notes: full-length human IgG1
B10: MS-R IgG1 7.11.H1 × 7.11.L1 (antibody, V domains shown)
VH: ELVESGGGLVQPGGSLRLSCAASGFTFSSYAMSWVRQAPGKGLEWVSGINAAGFRTYYADSVKGRFTISRDNSKNTLYLQMNSLRAEDTAVYYCARGKGNTHKPYGYVRYFDVWGQGTLVTVSS
VL: B1 VL with S28R, V29I, S30L, S31R, S32I, L90Q, I92V, N94S, M95P, I97H
notes: as for B8
B11: MSR 7.9.H2 IgG1 (antibody, V domains shown)
VH: B2 VH with G33A, N50A, S52N, G53A, S54D, S56N, S57R, T58K
VL: B1 VL
notes: full-length human IgG1
B12: MS-R IgG1 7.9.H3 (antibody, V domains shown)
VH: B2 VH with G33A, N50A, S52N, G53Y, S54Q, S56N, S57R, T58K
VL: DIVLTQSPATLSLSPGERATLSCRASQSVSSSYLAWYQQKPGQAPRLLIYGASSRATGVPARFSGSGSGTDFTLTISSLEPEDFATYYCLQIYNMPITFGQGTKVEIK
notes: full-length human IgG1; also called 7.9H3 IgG
B13: MS-R #7.11.H1×7.2.L1 IgG1 (antibody, V domains shown)
VH: B10 VH
VL: B1 VL with S28Y, S30D, S31R, S32T, L90Q, N94S, M95F, I97H
notes: full-length human IgG1; VH entry starts at QLVESGG; also called MAB 11
B14: MS-R IgG1 7.4.H2 × 7.2.L1 (antibody, V domains shown)
VH: B10 VH with G48A, A51Y, A52N, F54A, T56I
VL: B1 VL with S28Y, S30D, S31R, S32T, L90Q, N94S, M95F, I97H
notes: as for B8
B15: MS-R IgG1 3.6.H5 × 3.6.L2 (antibody, V domains shown)
VH: B8 VH with Y52S, S53G, F55T
VL: B1 VL with S28F, V29L, S31R, S32Y, T86V, L90Q, I92T, M95Y, I97P
notes: as for B8
B16: MS-R IgG 8.2.H2 × 8.2.L1 (antibody, V domains shown)
VH: B4 VH with Q3E, I53R, R56S, R57K, K58T
VL: B1 VL with S28R, S31G, S32R, L90Q, I92L, Y93S, N94S, M95Y, I97P
notes: full-length human IgG
B17: MS-R IgG 7.11H2 (antibody, V domains shown)
VH: B2 VH with G33A, N50A, S52N, G53A, S54N, S56Y, S57K, T58K
VL: B1 VL with L90Q, I92V, N94S, M95P, I97H
notes: full-length human IgG; also called 7.11H2 IgG

biological target: T5, human Aβ (1-40) peptide (human); assay: SPR, immobilized fibers
T5 construct: also called Aβ1-40 fibers

fold improvement of affinity over the MS-Roche-7 parental Fab [fold]	Binder
> 35	B1

biological target: T6, Aβ (1-42) peptide (human); assay: SPR, immobilized fibers
T6 construct: also called Aβ1-42 fibers; Aβ4
Method: (§1) Biacore2000 and Biacore3000 instruments were used for these measurements. Aβ1-40 and Aβ1-42 fibers were generated in vitro by incubation of synthetic peptides at a concentration of 200 μg/ml in 10 mM Na-acetate buffer (pH 4.0) for three days at 37° C. […] For binders with slow kinetics KD values were calculated by curve fitting of the time-dependent sensor responses, i.e. from the ratio of koff/kₒₙ. Binders with fast kinetics were analyzed by fitting the concentration-dependent sensor responses at equilibrium (adsorption-isotherms). KD values were calculated from the Biacore sensograms based on the total Fab concentration as determined by a protein assay. […] Briefly, time-dependent protein binding to Aβ1-40 fibers immobilized on the Biacore chip was measured during the association phase under mass-limited conditions at different flow rates of the analyte solution.

Kd [nM]	Binder
13.7	B2
5.7	B3

biological target: T5, human Aβ (1-40) peptide; assay: SPR, immobilized fibers; remark: another data set of the same source
Method: as §1

Kd [nM]	Binder
3.1	B2
2.3	B3

Biological target: T1, BSA-conjugated Aβ heptapeptide LVFFAEC
Assay: ELISA
Method: (§2) 50 μl of NSMP activated BSA (6.7 mg/ml) was diluted with 50 μl of PBS, 0.1% sodium azide and 10 μl of peptide solution (1 mM in DMSO) was added. As negative control activated BSA was mock-treated without peptide addition. After 4 hrs at room temperature the reaction was stopped by addition of 10 μl of 10 mM Cystein. An aliquot of the conjugate reaction mixture was diluted 1:100 with 0.1M sodium bicarbonate buffer and immediately filled into the wells (100 μl) of ELISA plates (Nunc Immuno-Plate). After standing 16 hrs at 4° C. 100 μl blocking buffer (as above) was added to each well and incubated for another 30 minutes. The plates were washed with 2×300 μl/well TBST (as above) and filled with 100 μl antibody at 10 μg/ml or 2 μg/ml in blocking buffer. The plates were kept 16 hours at 4° C. and washed with 2×300 μl TBST. 100 μl/well HRP-conjugated anti-human Ig H+L (Pierce, dilution 1:1000 with blocking buffer) was added and incubated for 1 hour at ambient temperature. The plates were washed with 3×300 μl/well TBST. Colour development was started by addition of 100 μl tetra-methyl benzidine/hydrogen peroxide reagent.

OD ratio 17-22/BSA	Peptide-ratio 17-22/2-7	Binder
7	0.34	B4
9	0.32	B1

Biological target: T2, BSA-conjugated Aβ heptapeptide VFFAEDC
Assay: ELISA
Method: as §2

OD ratio 18-23/BSA	Peptide-ratio 18-23/2-7	Binder
23	1.05	B4
13	0.46	B1

Biological target: T3, BSA-conjugated Aβ heptapeptide FFAEDVC
Assay: ELISA
Method: as §2

OD ratio 19-24/BSA	Peptide-ratio 19-24/2-7	Binder
20	0.94	B4
8	0.29	B1

Biological target: T4, BSA-conjugated Aβ heptapeptide AEFRHDC
Assay: ELISA
Method: as §2

OD ratio 2-7/BSA	Binder
22	B4
28	B1

biological target: T6, Aβ (1-42) peptide; assay: SPR, immobilized fibers, equilibrium responses
Method: as §1

Kd [nM]	Binder
2.1	B4

biological target: T5, human Aβ (1-40) peptide; assay: SPR, immobilized fibers, equilibrium responses
Method: as §1

Kd [nM]	Binder
1.6	B4

biological target: T6, Aβ (1-42) peptide; assay: SPR Scatchard, higher affinity (bivalent)
Method: (§3) Binders with fast kinetics were analyzed by fitting the concentration-dependent sensor responses at equilibrium (adsorption-isotherms). KD values were calculated from the Biacore sensograms based on the total Fab concentration as determined by a protein assay. […] Briefly, time-dependent protein binding to Aβ1-40 fibers immobilized on the Biacore chip was measured during the association phase under mass-limited conditions at different flow rates of the analyte solution.
(§4) KD values of IgG binding to Aβ1-40 and Aβ1-42 fibers were determined in the Biacore. Briefly, a kinetic model for the stepwise formation of a bivalent complex was used, and KD values were calculated by Scatchard type analysis of equilibrium binding. Due to the very slow association process at low antibody concentration (several hours to reach equilibrium) equilibrium binding data were obtained by extrapolation of the association curves to long time intervals. The on- and off rates for the formation of the monovalent and bivalent complex were determined via the curve fit procedure and used for the extrapolation. Based on these Req values a Scatchard analysis was performed and KD values for the formation of the monovalent and the bivalent complex were determined.

Kd [nM]	Binder
0.1 to 0.3	B5
0.12 to 0.92	B6
0.24 to 0.7	B7
0.22 to 0.82	B8
0.74 to 2.9	B9
0.13 to 0.7	B10
0.11 to 0.38	B11
0.1 to 0.4	B12
0.15 to 0.67	B13
0.12 to 0.56	B14
0.2 to 0.95	B15

biological target: T5, human Aβ (1-40) peptide; assay: SPR Scatchard, higher affinity (bivalent)
Method: as §3, §4

Kd [nM]	Binder
0.1 to 0.3	B5
0.16 to 1	B6
0.25 to 0.69	B7
0.22 to 0.95	B8
1.2 to 3.5	B9
0.11 to 0.7	B10
0.12 to 0.42	B11
0.1 to 0.5	B12
0.14 to 0.66	B13
0.12 to 0.63	B14
0.2 to 1.03	B15

Biological target: T1, BSA-conjugated Aβ heptapeptide LVFFAEC
Assay: ELISA
Remark: another data set of the same source
Method: as §2

OD ratio 17-22/BSA	Peptide-ratio 17-22/2-7	Binder
3	0.14	B5
10	0.56	B6
20	1.54	B16
5	0.17	B7
11	0.58	B2
5	0.38	B11
6	0.6	B17
6	0.46	B12
7	0.64	B15

Biological target: T2, BSA-conjugated Aβ heptapeptide VFFAEDC
Assay: ELISA
Remark: another data set of the same source
Method: as §2

OD ratio 18-23/BSA	Peptide-ratio 18-23/2-7	Binder
16	0.73	B5
15	0.83	B6
25	1.92	B16
16	0.53	B7
13	0.68	B2
8	0.62	B11
7	0.7	B17
8	0.62	B12
9	0.82	B15

Biological target: T3, BSA-conjugated Aβ heptapeptide FFAEDVC
Assay: ELISA
Remark: another data set of the same source
Method: as §2

OD ratio 19-24/BSA	Peptide-ratio 19-24/2-7	Binder
15	0.68	B5
14	0.78	B6
25	1.92	B16
10	0.33	B7
11	0.58	B2
6	0.46	B11
6	0.6	B17
6	0.46	B12
8	0.73	B15

Biological target: T4, BSA-conjugated Aβ heptapeptide AEFRHDC
Assay: ELISA
Remark: another data set of the same source
Method: as §2

OD ratio 2-7/BSA	Binder
22	B5
18	B6
13	B16
30	B7
19	B2
13	B11
10	B17
13	B12
11	B15

biological target: T6, Aβ (1-42) peptide; assay: SPR, immobilized fibers; remark: another data set of the same source

Kd [nM]	Binder
93	B1

biological target: T5, human Aβ (1-40) peptide; assay: SPR, immobilized fibers; remark: another data set of the same source

Kd [nM]	Binder
31	B1

biological target: T6, Aβ (1-42) peptide; assay: SPR, immobilized fibers; remark: another data set of the same source
Method: as §1

Kd [nM]	Binder
13.7	B2
5.7	B3

biological target: T5, human Aβ (1-40) peptide; assay: SPR, immobilized fibers; remark: another data set of the same source
Method: as §1

Kd [nM]	Binder
3.1	B2
2.3	B3
